Our source for the protein production values is a protein production outcome set (Wang et al. 2014).

This series in a line: label from the status in PepcDB records.

As to “MFWDSSRLIKLIGFFCLLLAQPLHATILSSALLNEAQQLAEIEPAQAKQAAKNYLSQRELTERKESGSPSAMSREETDRSIRTPASTIEAHKIIAQADYTMGNVRSAIDNLNEAEKLAKEYQLPYMTLDVQLMRNQMIWMYDHNYSAAEDALNQIEKQLDEADSVLQRTDSVRYRLVMQRALLAAHRGDNVGAERLYAQAKSMLEDSRSDLALIDYYTSVGEFYLNSKKYNLALSELLYGYWQSIESDSGTRLAKVNRLLARLFQERRVYDKAIEYLSQAADFYDSYPSSPILADVLEQMGDIYFYQGKFNLALVHYFNVLDHESTSRNINRTIKIRLSLAATYLQLYNYALAEQYLERATELLEYADIPQLEAKAALLKSGLAYHQNDSKKVIENAKKALELVEKAPENKNFIKQQSYRLLGLGYEQAGEYQLSLQAYKKYTSLVRLEQKQLNQISEDAFRQQKEFAEQTIHYVGQSERLEQVEMEHRKFQKISFALFITVLVMFLFIMRRGVIMQRQAGEIEKLRNDLFTHSRSRLRNLRMLNVKLSRSLKKSRDTFEQWQMGELIHEPLNDRLRFVMIDLPFLRSMYVQNGYKAGLELERAFGEYLAERIEKPARLYHFSDANLLYIEPNADRDASAEVMFEKFQAWVDEFATQHNVNRIIRMGISDYPFLPRAYTAINDEELLDLLLLATHIAREVSLKDKQSHWVFLKAIDNAPAASFATGNIRTACQHAINQGLIKIHSSYKNEDDIKKILKNG”, the protein production result is listed as “failed”.

Consider “MGACMKPIGSDGKPIPTPPSLLSFWEVVGVYGRLGLWLGALFIGAVGIFILMDQPPFVQMDWSGLVQQVAAVVALIAIVIPALQVFFALTNRASGSLRPGRYGRLFERRFARFTPQQIEDILQDARAILATMSDSPKRRAWARWVEWLEQRSNLPLAERSGLKIGVYHPRRSKLWIDGAGVALVGALGSWLIWDQRSWMGWAFLGVLGSLFTWGLLATLTERLELSDDSLSYYAFRRQQWSVPRQHVALREAGSSEYQIYDVRTGRLLGEVKGETFGADIVEALADLFPPWLGDEVG”, for which the protein production result is “failed”.

On to “MGAFFMSVVSAFAGAAEACRPTGALQNVEVARVVDGDTVRLRDGRSVRLIGINAPELAHNGRTTEPFAEAAKQRLQALVSASDGRLALQPGRQARDHYGRTLAHLFDASGANLEARLLGEGLGYLVAVAPNTELTACQQAAERAARSANLGVWKRSPVLSLDRLAQSGFAVVRGRVLEVERNRGGIWLEMDGPLVLRIEPKVLKAFDAKRVMQMAGRSLEVRGWVVDRSRRGAVPAGKARWQMSVTDPAMLEWLPLEHHHHHH”, for which the protein production entry was “failed”.

Consider “MGAIEDIYEDLETDVPEEEFREAVEEKVEQMGGLADEETAAMLLAHELNENEVNAIADIEPGMDEVKFLAKVMAIGDLKTFERDDEDEDGRVINVEAADESGSLRLAFWDGQAVDIDEGKLEVGDVLRVKGRPKDGYNGLEVSVDKAEPDEDATIDVEPGAGSSIDALTMGQSDVTLRGLVLDTDSIRTFDRDDGSEGRVSNLTLGDETGRIRVTLWDDRADRADELDAGAAVEIIDGYVRERDGSLELHVGDQGAVDEVEDDVAFEPDADPIAEVELEETADIAGVVRSADPKRTFDRDDGSEGQVRNVRIQDATGDIRVALWGDKADKDIAPGDEVLAADVEIQDGWQDDKEASASWNSTIVVLDDGADLATGGAGGGASAETTDAEHAGLSSFGDEGDDTDADSSGNEAAAVSAGTGDTSPDGGAQSAGQQVEFTGTVVQTGDPVVLDDGEQTMSVETGERVQLGQEITVRGELRDDRLHAEDVFLEHHHHHH”, for which the protein production result was “failed”.

With “MGAPPPANEDDRLAALHSYNILDTAPEPLYDDITAAAAQLCRTPMALISLIDQDRQWFKSRVGMQPAETPRDLAFCAHAILQPDQMMEVGDTFVDPRFARNALVTGGPQIRFYAGAPLLTSDGVALGTLCVLDRAPRTLSDAERTALQALARQVVTTIELRQAARLLEGDALRDPLTDLWNREGLEHMLEDAAPVAKLHGLAFVLIEIDGFKRLKLQFGSDAADATLVQAARCIETEPQEPGGVARIGAAHFCMVLPGADSAQALASVQRLQTTIAAACWPADTISITAGLVCVAPGEPLDSHVLMARARHALLGAARAGRNCVQRFDGWQTDR”, the protein production result is listed as “failed”.

With “MGAVGRGRRMSERHLRRSTHKVGDITLGAVHRLNCHCGAVQIDLDLPHGLVDPRRCDCSMCRRRGAIVASVPLQGLHVRQGEDVLRLYQFNTHAAAHYFCGVCGIYTHHRRRSNPNEYGYNVGCLEGVNPYALNITVPVEDGIHHPADRVAPQLEHHHHHH”, the protein production entry was “failed”.

On to “MGAVVVEPGSSSMVLGPEQVLDRASMHLANGLLGNPDSAAGLEVLLGGLKLRFVSGSAVAVTGAEGMVTLDGTELPLNKAVRVPPGAVLELGPAMFGIRYYLAVQGGISAQGEAAQGEAIRAGAALTFGRPNNHGSPEVNHPARRALDPERPVVARVSRGPQAQNDDAGTWLRLTSEPWILSPESDRAGARLVGRPLDVTSAPIPQAQPLVSGSVLLPSSGLPVIALAGHPDTSQSPVIAVVRDEDLDVLGQARPGQMVHLLG”, for which the protein production result is listed as “failed”.

On to “MGAWRFWWDSTRRFYKNWGSYVALIFSTNLVISYLAIPFFNWVLEMLLKWQRVSYVSYTNIGSIIIHQPLAALGMVAILLAIIILVYWQFAFLLLGIMNIFRGRPQTVRAVLRSTVTSLTGTSPSTFLFFIGYFIVILPFGSFIFTTPLLNKAKIPAFIVSYLMENPWMTLGLGCFYLLAGYLGIRLISLLPLMIVDRLPWKTAVTRSWQQTRHHLWRYLWTMIVTLFMIFLIVTTIYTLIYVAQLQFDKTSFAMAAATVNLFIMEAITEIIICYTTAIFMMLIIVCYRQDFTLLRQQPQYFNEAPRLRKLTRASVAIGLLLATSLLVAVNLVYLNGLVITKPIMISHRGVDNGNGVQNTIPALIKTSKEHPDYVEMDIQVTKDHQFVVMHDPTLKALAGVKKKPSQLTLKQLEKITVRENGYQAKIPSFDAYLKAAHKHHQKLLVEIKTSSAYTAADTKRFIDRYGATLLAHHDQVHTLSFKVMRDLKRLDQKQFVSYILPYNLTFPHTVANGYTMEVTTLNDQFVDKADRNHKTVYAWDIDNTDQMDQMMFMGVTGVVTDNLTEMQQEVKSNTDHPSYAKLLLTFMNELSLTSNE”, for which the protein production result was “failed”.

In the case of “MGCAEEKKTDVRWATFNIRYDNPQDSLNNWQYRKDRVCQFIKDHELDIVGMQEVLHNQFQDLRAGLPEYDGIGVGRDDGKTAGEYAPLFYRKDKYEVLDSNTFWLAENPDSVGMMGWDAVCVRIATWAKFKDKATGKIFMAVNTHFDHVGEEARRQSALLIIRKIKEIVGERPAVVTGDFNVTDASDAYETITTNEFVMKDAYKTAARVTGVDYTFHDFARIPAEDCEKIDFIFVTPQVLVKSCEIPAEVPEALLSDHNPQLADLELEHHHHHH”, the protein production entry is “failed”.

Consider “MGDALSLLQQADRLHRQLLRTGPAQAPCWEPPVDMIETESAVLIYVALPGVAAGDVAVRFDPDGISISGVRPLPALRNARIHGLEIPYGRFQRRIRLPLHALEPEAPTLADGCLTLTLKKLREAPLEHHHHHH”, for which the protein production entry is on record as “not failed”.

In the case of “MGDFDPNKPVVISEFSPKEGGLGTRMLLYGENFGSDISKIKVTIGGQDSKVVGAKGKSLYCVVPAKAYDGDIKLSILNDEGEEIANTEANEKFVYQKKMLVTTFLGTMYDGNTKYDLKDGPFDDCGGFGGAVWLSFDPKNHNHLYLVGEQHPTRLIDFEKEYVSTVYSGLSKVRTICWTHEADSMIITNDQNNNDRPNNYILTRESGFKVITELTKGQNCNGAETHPINGELYFNSWNAGQVFRYDFTTQETTPLFTIQDSGWEFHIQFHPSGNYAYIVVVNQHYILRSDYDWKTKRLTTPYIVCGQQGAKDWVDGVGKKARMHAPRQGTFVKNPAYKGSSDEYDFYFCDRENHCIRILTPQGRVTTFAGRGSNGTSGYNDGDLRQEARFNHPEGIVYDEERECFFIGDRENRRIRKIGLEHHHHHH”, the protein production entry was “failed”.

Regarding “MGDMIFGILTWLPGLILAITLHEAAHGYVASALGDQTARLLGRVTLNPIRHVDPFGTLVLPGLLFLVGAPFLFGWAKPVPVDYRNLRHPKRDMAWVALAGPGMNIFLAVVSAAALHGALLLPDPAADWLITTLQKSVLINCVLAVFNMIPVPPLDGGRVLVGILPMRAAVVVARMERVGMLALIGVIFLLPLALSQFGVDFDPFSRIIGPVVRALLGAVYTTAGIPLF”, the protein production result is “failed”.

“MGDRIAVQAEPTPAKLRGAASGDLVMRKVCMQQWRPTAPRGEYVSTEWSAGYVTDVNYTFGYYGELNPLRCRLPLLTVGRHAPKIENACELGFGQGLSVSIHAAAQPGINWYGTDFNPSQAAFAAEMVRLSGAEAKLYDEAFAEFCNRKDLPDFDFIGLHGIWTWISDQNRHVLVDFIRRKLRPGGVLYISYNTLPGWSSSAPIRHLMKRHADVMGAPGQGVIGQTDAALNFIDQFLALDPLYAKVNPGAVERLKQVKAQDRKYLAHEYMNRDWHPMYFADVENWLGDAKVGFACSAHVLDNLYDLNMTPQQTEFMRDVSDVSLRETIRDFCMNQQFRRDYWVRGVRALIGHEQVAAMREERVVMTVAQADLPTKVRGVIGEATLNDDVYQPLFEILLDHKPHSVLELETHLASKSLHFGQLSSALTILLGLGVITTAAAAQDVSKAKARTLALNKTIARRSLSVGDIAYFASPITGGGITASRFAQLFWLSRQNGGKTAEDWASFAYQVLQGQGQAIIKDGATLQGEDNLTELRAQATHWGAHVLPIWNALGV”: the protein production entry is on record as “failed”.

With “MGEKKGLSFFEKYLSLWVALCIVLGILIGKFMPSLPRTLSKLTIANVNMAIAVLIWAMIYPMMVKVDFSAIKRVHKGQMLKGLIVTWVTNWLIKPFSMFLISSFFIGTIFSMKLGLIDPSLAKEYIAGAILLGAAPCTAMVFVWSYLADGDPLYTLVQVATNDIIILFAFAPIVGFLMGLNKVPVPYDTLLLSVVLFVVIPLSAGYLSRRYILKTKGHKWFEQEFLPKLSTISIVGLLLTLILLFSFQGEIILENPLHIALIAIPLTIQTYFIFAIAYGWAWIWKLPHKVAAPASFIGASNFFELAVAVAIALFGLDSGAALATVVGVLEEVPIMLSLVWIANKTRHFFTAKFETGSGSKAWALLRNSLPYYPYCPNHEDIRKDTYKQMNLYPVLFFLG”, the protein production entry is listed as “failed”.

For “MGEMTLAFIEEQYKELDNLNNKENPAVLTRNTATGELLVRKIIPISFAPVLEELKKLSSNYLPKIEVMIPNGSELIVYEEYINGKNLADLMKVNAPFDADEVTGLMLMLSDALTELHTNAIIHRDIKPSNIMISSDGVLKLIDFDASRVFEVGKNQDTVNLGTIGYAAPEQYGYSQTDARSDIYSIGVLMLELLRGKNNLPDKETATSLEKIAMQAASFDPEQRFQTIQEFRTAIKNDSLGPTFVSELTNLSDFATIEDSADEINWATSTDEYEKDFIPWYKHIPGFRTGHTWKMVVAVLGYIFMAFGLFTPPTEGVKMNNIENFFANFFLIFPAFIIFTNLCGIWSKLPLLKSSSKGTRKVGIVVYIFVCIMIYGIYTEIFS”, the protein production entry is recorded as “failed”.

For “MGEYCEKDFRSLQRCAEMNNIRIFKFLVILYSLLLIASSFVYYYREDIYIRPESYFYLLTLAVGVTFAQIIFFGRNSRSEVKFLIFVEVLLVALSFTLTQQALYKTVLGRDPWFHWILVEEIVKRGSIPPYEQIPIPYVRMPNFHLVIASGIVLTNLSYKWAQVLFAGFPTLILLMLVAFLYSKKLFDDQVGLVSILLVAISDNVLDMVGKNIVPNTLGVALAFLIFYLIYFREYHNLMIKFLSVLVAIALAFMHTVSLTFLIWQIFVISILSLILKDKSAKFYLAHFAFLIVSALFVWGIYSGFYLKSLVIIFKQLFIYGFDIERYEAKLPTTFLDAVIARSGMVLYFAIAGIITFYLLVKTLKRRAFGIKLSTLSSILATISILAGAVSFLTPALSGIAHRFWYYGEVLSSAFVGSVLANLYERKKVIIVFNLIFICALSMLMFKANVANDDNPLVPYYSQRTGWHDSEIEAGKFVISKQGNIPIASDWDYSWNLRYLKTSLMASGALKDINRVTPKTFEEVKNCNCLFVFRKDLLENRLFYLGGRWTQTPHLPLSTLNLVIKELSENEGIIYNNNNILIMHLV”, the protein production result was “failed”.

As to “MGEYYHATVNGVVEYGAFVDLSEHVSGLIHESTYSGDPDLAVDDDVIVHLSAVRDNGDLSFEFVDPEEYRTEQRSLEHHHHHH”, the protein production entry is given as “failed”.
